From patent publication US20040248807A1 (OREGON HEALTH AND SCIENCE UNIVERSITY, published 2004)
Square brackets hold non-standard residues; d marks the D form. Ends that are not written are not given here. pY = N[C@@H](Cc1ccc(OP(=O)(O)O)cc1)C(=O)O

Target: Human α-thrombin (human, UniProt P00734 328-622)
Test: fluorescence polarization competition against fluoresceinated γ′408-427 phosphorylated peptide, 2 µM α-thrombin

Binder: E[pY]DSL[pY]PEDDL [γ′ amino-terminal deletion peptide 417-427, phosphotyrosine at 418 and 422]
- binding result: no binding
